{"source": "paper doi:10.1101/2025.02.04.636395", "about": "“Identification of a RAB32-LRMDA-Commander membrane trafficking complex reveals the molecular mechanism of human oculocutaneous albinism type 7” (bioRxiv, 2025)", "binders": {"B1": {"name": "recombinant RAB32 (natural protein, human, UniProt Q13637 1-225, looked up)", "chain": "MAGGGAGDPGLGAAAAPAPETREHLFKVLVIGELGVGKTSIIKRYVHQLFSQHYRATIGVDFALKVLNWDSRTLVRLQLWDIAGQERFGNMTRVYYKEAVGAFVVFDISRSSTFEAVLKWKSDLDSKVHLPNGSPIPAVLLANKCDQNKDSSQSPSQVDQFCKEHGFAGWFETSAKDNINIEEAARFLVEKILVNHQSFPNEENDVDKIKLDQETLRAENKSQCC", "notes": "RAB32, human; synthetic gene codon-optimised for S. frugiperda; also called tag-less RAB32; purified RAB32; source: Sf21 insect cells (baculovirus), purified (Glutathione Sepharose, TEV cleavage); not shown: GST, N-terminal, cleaved"}}, "target": "T1, recombinant LRMDA (human, UniProt A0A087WWI0 1-226)", "T1 construct": "synthetic gene codon-optimised for S. frugiperda; also called tag-less LRMDA; purified LRMDA; source: Sf21 insect cells (baculovirus), purified (HaloLink resin, TEV cleavage); not shown: HaloTag, N-terminal, cleaved", "T1 sequence (looked up)": "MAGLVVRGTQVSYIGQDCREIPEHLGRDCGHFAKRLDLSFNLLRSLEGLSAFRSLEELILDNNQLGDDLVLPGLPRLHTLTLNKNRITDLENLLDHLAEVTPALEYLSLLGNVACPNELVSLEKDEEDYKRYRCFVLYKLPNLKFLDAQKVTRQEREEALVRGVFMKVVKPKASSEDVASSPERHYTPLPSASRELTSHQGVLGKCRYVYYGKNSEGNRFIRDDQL", "test": "pull-down; Retriever (0.5 µM, His-tagged VPS29) held on TALON resin; 1 µM LRMDA and/or 1 µM RAB32 added; 50 mM HEPES pH 7.2, 150 mM NaCl, 2 mM β-mercaptoethanol, 0.1% Triton X-100; 45 min at 4 °C; washes with 10 mM imidazole; LRMDA binding slightly increased in the presence of RAB32", "details": "both partners purified"}
{"binder": "B1", "values": [{"measurement": "binding result", "result": "binds"}]}
